Values of other authors as cited in patent publication US20040101532A1, “Methods and compositions for heat shock protein mediated immunotherapy of melanoma” (priority 2004, published 2004).

Legend:
[1] = tested on: gp100; conditions: detected without extensive preliminary in vitro sensitization
[2] = tested on: CD8+ cytotoxic T lymphocytes; conditions: HLA-A*0201-restricted TRP-2 peptides
[3] = tested on: tyrosinase; conditions: vaccinated patients, after immunization with the tyrosinase peptide antigen
[4] = vaccinated patients

Sequence: IMDQVPFSV [gp100:209-217 peptide modified at second position, methionine for threonine]
- anti-gp100 T cell reactivity induced by immunization [1]: induce anti-gp 100 T cell reactivity

Sequence: TLDSQVMSL [TRP-2(360-368), HLA-A*0201-restricted TRP-2 peptide]
- induction of specific CD8+ cytotoxic T lymphocytes [2]: induced specific CD8+ cytotoxic T lymphocytes

Sequence: VMGTLVALV [TRP-2(476-484), HLA-A*0201-restricted TRP-2 peptide]
- induction of specific CD8+ cytotoxic T lymphocytes [2]: induced specific CD8+ cytotoxic T lymphocytes

Sequence: YMDGTMSQV [tyrosinase:368-376 (370D)]
- increase in T cell responsiveness against tyrosinase by ELISPOT [3]: Two of nine vaccinated patients showed an increase in T cell responsiveness
- tolerability in clinical trial [4]: well tolerated with little toxicity
